The supplement of paper PMC9876800

Tested on: peptide library, one residue held at a place counted from the S/T acceptor
Experiment: relative phosphorylation of the sub-library (ratio to the mean residue at this position); higher = residue favoured
Summary of the method: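 Relative sub-library phosphorylation, a ratio to the mean residue at that position, was obtained by phosphorimaging and densitometry of spots on streptavidin membranes. Before capture, purified recombinant kinases were incubated for 90 min under kinase-specific conditions with 50 μM biotinylated degenerate peptide sub-libraries and 50 μM ATP spiked with γ-32P-ATP. Each sub-library fixed one residue at one position around a central Ser/Thr.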

DYRK4, construct: Full length, human (from UniProt Q9NR20)
relative phosphorylation
Conditions | at +1 | at +2 | at +3 | at +4 | at -1 | at -2 | at -3 | at -4 | at -5
A fixed | 0.514 | 0.92 | 0.735 | 0.738 | 1.25 | 2.4 | 1.05 | 1.07 | 0.995
D fixed | 0.171 | 2.1 | 1.07 | 1.49 | 0.773 | 0.283 | 0.554 | 0.801 | 0.827
E fixed | 0.189 | 1.81 | 0.985 | 1.28 | 0.959 | 0.27 | 0.54 | 0.85 | 0.807
F fixed | 0.166 | 1.03 | 0.935 | 1.27 | 0.671 | 0.366 | 0.464 | 0.725 | 1.09
G fixed | 0.614 | 0.629 | 1.3 | 1.06 | 1.28 | 0.977 | 1.29 | 1.13 | 1.1
H fixed | 0.173 | 1.09 | 0.909 | 1.03 | 0.925 | 0.493 | 0.88 | 0.961 | 1.11
I fixed | 0.268 | 1.35 | 0.696 | 1.09 | 0.73 | 0.781 | 0.491 | 0.939 | 0.9
K fixed | 0.228 | 0.317 | 0.428 | 0.543 | 0.87 | 0.421 | 0.796 | 0.857 | 0.922
L fixed | 0.202 | 1.18 | 1.42 | 0.967 | 0.832 | 0.871 | 0.624 | 0.893 | 0.825
M fixed | 0.21 | 1.23 | 1.12 | 1.19 | 1.16 | 0.844 | 0.647 | 0.888 | 0.78
N fixed | 0.2 | 0.738 | 0.825 | 0.866 | 0.847 | 0.907 | 0.728 | 0.719 | 0.882
P fixed | 12 | 0.629 | 3.2 | 0.896 | 1.71 | 2.89 | 1.05 | 1.3 | 1.02
Q fixed | 0.266 | 0.783 | 0.882 | 0.958 | 0.962 | 0.629 | 0.805 | 0.916 | 1.04
R fixed | 0.93 | 0.367 | 0.554 | 0.672 | 1.41 | 3.18 | 5.51 | 2.49 | 1.98
V fixed | 0.578 | 1.07 | 0.637 | 0.87 | 0.963 | 1.02 | 0.478 | 0.731 | 0.792
W fixed | 0.163 | 0.909 | 0.726 | 1.16 | 0.595 | 0.321 | 0.533 | 0.875 | 0.656
Y fixed | 0.161 | 0.843 | 0.569 | 0.919 | 1.06 | 0.354 | 0.556 | 0.863 | 1.28
pThr fixed | 0.375 | 4.81 | 0.992 | 1.93 | 0.506 | 0.647 | 0.592 | 0.868 | 0.978
pTyr fixed | 0.365 | 3.13 | 1.37 | 2.35 | 1.04 | 0.383 | 0.698 | 0.896 | 1.44
